Test results as given in US20240239877A1.

Target: 123 different clinical envelope proteins
Test: cell-based or functional assay

Row | Binder | Geometric mean EC50 (nM), cell-cell fusion assay [nM] | Geometric mean EC50 (µg/mL), cell-cell fusion assay [µg/mL] | Median EC50 (nM), cell-cell fusion assay [nM]
1 | CD4 B Adnectin (anti-CD4 Domain 4 Adnectin) (designed binder) MASTSGSASYLIPSDLEVVAATPTSLSIYWYPVASTIINFRITYVETGGNSPVQEFTVPGSKSTATISGLKPGVDYTITVYAVHYEQKYSEYWIGHPISINYRTEGSGSHHHHHH | 163 | 1.8 | 1300
2 | CD4 A Adnectin (anti-CD4 Domain 2 Adnectin) (designed binder) GVSDVPRDLEVVAATPTSLLISWDAPAVTVHSYHIQYWPLGSYQRYQVFSVPGSKSTATISGLKPGVEYQIRVYAETGGADSDQSFGWIQIGYRTP | 5.5 | 0.006 | 5.3
